According to PMC4310248:

Molecular target: Exo10Rrp6 (crystal; Exo9 core + Rrp6 128-685 D238N) (Saccharomyces cerevisiae, UniProt Q12149;P38792;Q08285;P53859;P46948;Q05636;Q12277;P48240;P53256;P25359 …, D238N;Rrp6:)
Assay: X-ray crystallography

Question: Does AAAAAAAAAAAAAAAAAAAAAAAA (ssRNA) [polyA24] bind?
Answer: binds
